Measured values reported in patent US20230322927A1.

Experiments:
[1] = biological target: cynomolgus CD28 on cynomolgus T cells (cynomolgus) (UniProt Q0PDN3); test: flow cytometry on cynomolgus CD2+/CD4+ T cells, Alexa647 read-out
[2] = biological target: human CD28 on cells (human) (UniProt P10747); test: flow cytometry on human CD2+/CD8+ T cells, Alexa647 read-out
[3] = biological target: cynomolgus CD28 on cynomolgus T cells (cynomolgus) (UniProt Q0PDN3); test: flow cytometry on cynomolgus CD2+/CD8+ T cells, Alexa647 read-out
[4] = biological target: human CD28 on cells (human) (UniProt P10747); test: flow cytometry on human CD2+/CD4+ T cells, Alexa647 read-out

EC50 (read off the curve) [1]: 0.05 nM | EC50 (read off the curve) [2]: 0.05 nM | EC50 (read off the curve) [3]: 0.05 nM | EC50 (read off the curve) [4]: 0.05 nM
Substance: REGN5705 (antibody)
